Assay results: US20150351390A1, “COMPOSITIONS AND METHODS FOR AUXIN-ANALOG CONJUGATION” (PIONEER HI-BRED INTERNATIONAL, INC., priority 2012, published 2015)

B1: Sm85812: GH3 protein, Selmo1|85812 (protein, listed as Selaginella moellendorffii)
chain: MHSICLKSMEHATKNAAVIQRELLQQILEKNAGTEYLTRHGLDEESNLVDGFHKLPLVEYNDIEADIKRIADGDTGRILCSDPISQFFISSGTTTGRSKLIPVTKEANSRFFRPPLISPAWHRVFTINPDETYLAFWFASKQSLTKGGFKAETVTTSGLNSAHFKRAAASFVTPHKIFQSTSMYQCLYCHLLCGLLRREEVTVVISAFAFALTEAFRVLEQVWSELLEDIEAGSLSSRITDPILRLAMSGIAPPSPELAEQLRREFRSFSMDGIVQRLWPNAKSVVAVTTGAMAPYAPRLRALAGKTPLVCGNYFSSECLIGINLSPASSPATFTVNPEFAYFEFLSYHDGETKLNGLEEQRPVGLTEVTIGEKYEIVVTTRSGLYRYRLGDVVQVAGFFNSSPSLRFLFRRNVVMSVATDKTDEFELQAVVHKASLLLRSSSQLHDFAGYADFSSIPGHYAIFWELNHGGSMDPSTLQDCCELLDVSLNDPYLRGRSSGAIGPLKLCVVRGGSFRELFEQHVARGGSGSQYKSCRCVASKQAIDLLRRNTLQQALSSKFPNPWKLSIKSLELDQ
B2: OsGH3-12: GH3 protein, accession Q53P49 (protein, listed as Oryza sativa)
chain: MLEKEGKLIMSREDEEIMAWFERTTRDAADVQRETLRRILAENAGVEYLRELGLAGLTDAGSFRARVPVVTHADLDPYIQRVADGDASPVLTAKPVTAISLSSGTTQGKRKRLLFNDDLLRSSIRFFHASYAFTNRAFPVEDGRVLQFMYGSRHETTKGGLTATTVMTNLLRSEEFTASMAARSRPRLPSCSPSEVVFSPDFDESLYCHLLCGLLLAGEVRAVSASFAHSIVVALQALERVWRELCADIRRGAASPARVTTPAVRRAVAPILAAPNPALADALERRCAALGDWSGVIPALWPNARYVQATMTGSMEHYVKKLRHYAGGVPLVSGNYASSEGVIGINAEQHAPPESVVFTVLPDAAYFEFIPLKPPCTDAAADDDNPAAAGSSCYVDADDANPVGLTDVVVGEHYEVVMTTFTGLYRYRLGDVVKVAGFHHATPKLRFVCRRSLILSINVDKNSEHDLQLAVDSAAKILAGDGENHKQLEIADYTSHADTSSDPGHYVVFWELNGGGEEDGGGVLQRCCDEMDRAFGADAGYAQSRKTCAIGALELRVLRRGAFQEVLRHYVAGGSSAGQFKMPRCVAPSNAGVLRVLKDNTINIFFSTAYDYD
B3: OsGH3-3: GH3 protein, accession EEE54131 (protein, listed as Oryza sativa)
chain: MLEKKATRSTRVDGVSGEAVIEEFERVTRDAANVQRETLRRILAENGGVEYLRGLGLAGATDPATFRARVPLATHADLEPYIDRIADGDASPVLTAKPATSISLSSGTTQGKRKYLLFNEELVKSTMQIYRISYAFRNREFPVENGKALQFIYSSRETRTKGGLTATTATTNVYRSEEFKATMRDIQSQCCSPDEVIFGPDFAQSLYCHLLAGLLAAGDVQIVSATFAHSVVLAFQTFERAWEDLCADIRRGEVSPSRVTSPAVRRAMAALLAAPNPGLADEVARKCAALSNWYGVIPALWPNARYVYGIMTGSMEHYVKKLRHYAGGLPLVAAEYGASEGWVGANVEPGTPPERATFTVLPDIAYFEFIPLKPVAGDGGYAEAEPVGLTEVAAGELYEVVMTTFAGLYRYRLGDVVKVAGFYNATPKLKFVCRRNLMLSINIDKNSEQDLQLAVDAAARAVLAGEKLEVVDYTSHADVSSDPGHYVVFLELNAADPAAVDGDVMQACCDELDRAFADAGYVGSRKSGAIAPLELRVLQRGTFQKVLRHYLSLGAPVSQFKSPRCVSRSNSGVLQILAGCTVNVFFSSAYD
B4: AtGH3-11: GH3 protein, accession AAD23040 (protein, listed as Arabidopsis thaliana)
chain: MLEKVETFDMNRVIDEFDEMTRNAHQVQKQTLKEILLKNQSAIYLQNCGLNGNATDPEEAFKSMVPLVTDVELEPYIKRMVDGDTSPILTGHPVPAISLSSGTSQGRPKFIPFTDELMENTLQLFRTAFAFRNRDFPIDDNGKALQFIFSSKQYISTGGVPVGTATTNVYRNPNFKAGMKSITSPSCSPDEVIFSPDVHQALYCHLLSGILFRDQVQYVFAVFAHGLVHAFRTFEQVWEEIVTDIKDGVLSNRITVPSVRTAMSKLLTPNPELAETIRTKCMSLSNWYGLIPALFPNAKYVYGIMTGSMEPYVPKLRHYAGDLPLVSHDYGSSEGWIAANVTPRLSPEEATFAVIPNLGYFEFLPVSETGEGEEKPVGLTQVKIGEEYEVVITNYAGLYRYRLGDVVKVIGFYNNTPQLKFICRRNLILSINIDKNTERDLQLSVESAAKRLSEEKIEVIDFSSYIDVSTDPGHYAIFWEISGETNEDVLQDCCNCLDRAFIDAGYVSSRKCKTIGALELRVVAKGTFRKIQEHFLGLGSSAGQFKMPRCVKPSNAKVLQILCENVVSSYFSTAF
B5: Sm93250: GH3 protein, Selmo1|93250 (protein, listed as Selaginella moellendorffii)
chain: MDPALFRDDIESKTKDAAAVQANLLSQMMELNGETEYLRRYGGRFDSLPIIEYHDVADEVQRIANGDTSPILTAEPVVRFFKSSGTVTGEPKLIPATSKSLELLFRRPVYMMESDVCLGFLFAKPENKSPGGLPVSTTSSMFFKVQGENLEKMFTSPMKLLLAPDINQSLYCQLLCGLIRSEDVTQVFAALAITLVEALRLLEEAWSELADDVQTGTLNSKITDPTLRSSLSLCLRPNLKLAQSIRKECTADNAWCGIVERLWPKTKVIVTITTGGMAPYAPAVRKYGGSVPIVSGDYVCTECVLGFNLDPFCPPESVSFTIHPEYAYYEFLHYPQKLTDGSTVKLVDVKVGEEYELVVSTWSGLYRYKVGDIVRVTGFHNFSPNISFVHRLNAELDIAGERSTEAELQVAVQKSQHCLPASQELVDFTCHQDGQRYLIFWEIKNGDSLNPMILETCCCVLDTSLTERYKQRRENGLIGPLRLCIVRGKTFKALQQYSLEKGINPTQYKTPRCITSPEMIAILQAGITQDCQTPA

Experiments:
Type in all cases: biochemical
[1] = LC-MS assay of GH3 conjugation of dicamba with Asp or Glu; settings: LC-MS; for Detected auxin conjugates: Dicamba-Asp: dicamba with Asp; for Detected auxin conjugates: Dicamba-Glu: dicamba with Glu
How it was run: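 Dicamba–amino acid (Asp or Glu) conjugates formed by purified his-tagged GH3 enzymes were detected by LC-MS on an AB Sciex 4000 QTrap with Shimadzu Nexera UHPLC and a Phenomenex Luna 3 μm Phenyl-Hexyl column, after 20× dilution of the supernatant in water. Standards were used to quantify conjugates. Protein concentration was determined by Bradford assay.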

[2] = LC-MS assay of GH3 conjugation of IAA with Asp or Glu; settings: LC-MS; for Detected auxin conjugates: IAA-Asp: IAA with Asp; for Detected auxin conjugates: IAA-Glu: IAA with Glu
How it was run: (§1)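 Rxn: 20 mM Tris-HCl pH 8.0, 5 mM MgCl2, 1 mM DTT, 5 mM ATP, 5 mM auxin, 5 mM Asp/Glu, 44–164 μg/mL purified His-GH3; 30° C., 3 h. MeOH quench, supernatant diluted 20×, LC-MS vs conjugate standards.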

[3] = LC-MS assay of GH3 conjugation of 2,4-D with Asp or Glu; settings: LC-MS; for Detected auxin conjugates: 2,4-D-Asp: 2,4-D with Asp; for Detected auxin conjugates: 2,4-D-Glu: 2,4-D with Glu
How it was run: as §1

Molecule	Detected auxin conjugates: Dicamba-Asp [1]	Detected auxin conjugates: Dicamba-Glu [1]	Detected auxin conjugates: IAA-Asp [2]	Detected auxin conjugates: IAA-Glu [2]	Detected auxin conjugates: 2,4-D-Asp [3]	Detected auxin conjugates: 2,4-D-Glu [3]
B1	No	No	Yes	No	No	No
B2	No	No	No	No	No	No
B3	No	No	Yes	No	No	No
B4	No	No	No	No	No	No
B5	No	No	Yes	No	No	No
